Among the data in US20140302033A1 (UCB, published 2014) are Kd, koff and kon values, retold here.

Assay [1] deals with T1, Human Serum Albumin (human, UniProt P02768 25-609).
T1 construct: also called HSA; HAS
Briefly: kinetics table, analyte HSA, single concentration 50nM; HEK293 material; method not named in Example 4.

Assay [2] has as its target T1, Human Serum Albumin. The experiment in a line: kinetics table, analyte HSA, titration 50nM, 25nM, 12.5nM, 6.25nM; HEK293 material; method not named in Example 4.
In assay [3] the target is T2, Cynomolgus Serum Albumin (cynomolgus, UniProt A2V9Z4 25-608).
T2 construct: also called CSA
Briefly: SPR BIAcore T200; Fab-Fv captured by anti-human F(ab')2, albumin as analyte; average of 3. The protocol: (§1) BIA (Biamolecular Interaction Analysis) was performed using a BIAcore T200 (GE Healthcare). Affinipure F(ab′)₂ Fragment goat anti-human IgG, F(ab′)₂ fragment specific (Jackson ImmunoResearch) was immobilised on a CM5 Sensor Chip via amine coupling chemistry to a capture level of ≈5000 response units (RUs). HBS-EP buffer (10 mM HEPES pH 7.4, 0.15 M NaCl, 3 mM EDTA, 0.05% Surfactant P20, GE Healthcare) was used as the running buffer with a flow rate of 10 μl/min. A 10 μL injection of Fab-Fv at 0.75 μg/mL was used for capture by the immobilised anti-human IgG-F(ab′)₂. Human Serum Albumin (HSA), Mouse Serum albumin (MSA) and Cynomolgus Serum Albumin (CSA) was titrated over the captured Fab-Fv at various concentrations (50 nM to 6.25 nM) at a flow rate of 30 μL/min. The surface was regenerated by 2×10 μL injection of 50 mM HCl, followed by a 5 μL injection of 5 mM NaOH at a flowrate of 10 μL/min. Background subtraction binding curves were analysed using the T200evaluation software (version 1.0) following standard procedures. Kinetic parameters were determined from the fitting algorithm.
(In SPR one partner is held on a chip, and binding of the other changes the refractive index at the surface.)

Assay [4] has as its target T3, Mouse Serum albumin (mouse, UniProt P07724 25-608).
T3 construct: also called MSA
Described as above. The protocol: as §1

For assay [5], the target named is T1, Human Serum Albumin. Described as above. As to the method: as §1

B1: FabA-dsscFv (CL-dsscFv) (bispecific antibody)
chain 1: DIQMTQSPSSLSASVGDRVTITCRATQSIYNALAWYQQKPGKAPKLLIYNANTLHTGVPSRFSASGSGTDSTLTISSLQPEDFATYYCQQYYDYPLTFGGGTKVEIKRTVAAPSVFIFPPSDEQLKSGTASVVCLLNNFYPREAKVQWKVDNALQSGNSQESVTEQDSKDSTYSLSSTLTLSKADYEKHKVYACEVTHQGLSSPVTKSFNRGECSGGGGSGGGGSGGGGSEVQLLESGGGLVQPGGSLRLSCAVSGIDLSNYAINWVRQAPGKCLEWIGIIWASGTTFYATWAKGRFTISRDNSKNTVYLQMNSLRAEDTAVYYCARTVPGYSTAPYFDLWGQGTLVTVSSGGGGSGGGGSGGGGSGGGGSDIQMTQSPSSVSASVGDRVTITCQSSPSVWSNFLSWYQQKPGKAPKLLIYEASKLTSGVPSRFSGSGSGTDFTLTISSLQPEDFATYYCGGGYSSISDTTFGCGTKVEIKRT
chain 2: EVQLVESGGGLVQPGGSLRLSCAASGFTFTNYGIHWIRQAPGKGLEWVASISPSGGLTYYRDSVKGRFTISRDDAKNSPYLQMNSLRAEDTAVYYCATGGEGIFDYWGQGTLVTVSSASTKGPSVFPLAPSSKSTSGGTAALGCLVKDYFPEPVTVSWNSGALTSGVHTFPAVLQSSGLYSLSSVVTVPSSSLGTQTYICNVNHKPSNTKVDKKVEPKSC
Consider B1, for which, in assay [1], the Kd (as a rule, the equilibrium constant for the complex coming apart) came out at 1.28 nM; the koff (usually the rate constant with which the complex falls apart) is 0.000211 s⁻¹; the kon – broadly, the second-order rate constant of association – was 165000 M⁻¹ s⁻¹. In addition, in assay [2], binding was put at a Kd of 1.31 nM, the koff came out at 0.00024 s⁻¹ and the kon is 183000 M⁻¹ s⁻¹.

B2: FabA-dsscFv (CH1-dsscFv) (bispecific antibody)
chain 1: EVQLVESGGGLVQPGGSLRLSCAASGFTFTNYGIHWIRQAPGKGLEWVASISPSGGLTYYRDSVKGRFTISRDDAKNSPYLQMNSLRAEDTAVYYCATGGEGIFDYWGQGTLVTVSSASTKGPSVFPLAPSSKSTSGGTAALGCLVKDYFPEPVTVSWNSGALTSGVHTFPAVLQSSGLYSLSSVVTVPSSSLGTQTYICNVNHKPSNTKVDKKVEPKSCSGGGGSGGGGTGGGGSEVQLLESGGGLVQPGGSLRLSCAVSGIDLSNYAINWVRQAPGKCLEWIGIIWASGTTFYATWAKGRFTISRDNSKNTVYLQMNSLRAEDTAVYYCARTVPGYSTAPYFDLWGQGTLVTVSSGGGGSGGGGSGGGGSGGGGSDIQMTQSPSSVSASVGDRVTITCQSSPSVWSNFLSWYQQKPGKAPKLLIYEASKLTSGVPSRFSGSGSGTDFTLTISSLQPEDFATYYCGGGYSSISDTTFGCGTKVEIKRT
chain 2: DIQMTQSPSSLSASVGDRVTITCRATQSIYNALAWYQQKPGKAPKLLIYNANTLHTGVPSRFSASGSGTDSTLTISSLQPEDFATYYCQQYYDYPLTFGGGTKVEIKRTVAAPSVFIFPPSDEQLKSGTASVVCLLNNFYPREAKVQWKVDNALQSGNSQESVTEQDSKDSTYSLSSTLTLSKADYEKHKVYACEVTHQGLSSPVTKSFNRGEC
In assay [1], B2 had a Kd of 1.25 nM, a koff of 0.000199 s⁻¹ and a kon of 160000 M⁻¹ s⁻¹. For the same molecule, in assay [2], binding was characterised by a dissociation constant (Kd) of 1.29 nM, the koff was determined as 0.000222 s⁻¹ and the on-rate (kon) amounted to 172000 M⁻¹ s⁻¹.

B3: A26 Fab-dsFv (645gH5gL4) (bispecific antibody)
heavy: EVQLVESGGGLVQPGGSLRLSCAASGFTFTNYGIHWIRQAPGKGLEWVASISPSGGLTYYRDSVKGRFTISRDDAKNSPYLQMNSLRAEDTAVYYCATGGEGIFDYWGQGTLVTVSSASTKGPSVFPLAPSSKSTSGGTAALGCLVKDYFPEPVTVSWNSGALTSGVHTFPAVLQSSGLYSLSSVVTVPSSSLGTQTYICNVNHKPSNTKVDKKVEPKSCSGGGGSGGGGTGGGGSEVQLLESGGGLVQPGGSLRLSCAVSGIDLSNYAINWVRQAPGKCLEWIGIIWASGTTFYATWAKGRFTISRDNSKNTVYLQMNSLRAEDTAVYYCARTVPGYSTAPYFDLWGQGTLVTVSS
light: DIQMTQSPSSLSASVGDRVTITCRATQSIYNALAWYQQKPGKAPKLLIYNANTLHTGVPSRFSASGSGTDSTLTISSLQPEDFATYYCQQYYDYPLTFGGGTKVEIKRTVAAPSVFIFPPSDEQLKSGTASVVCLLNNFYPREAKVQWKVDNALQSGNSQESVTEQDSKDSTYSLSSTLTLSKADYEKHKVYACEVTHQGLSSPVTKSFNRGECGGGGSGGGGSGGGGSDIQMTQSPSSVSASVGDRVTITCQSSPSVWSNFLSWYQQKPGKAPKLLIYEASKLTSGVPSRFSGSGSGTDFTLTISSLQPEDFATYYCGGGYSSISDTTFGCGTKVEIKRT
notes: Anti-OX40 A26 Fab fused to the disulphide-stabilised anti-albumin Fv 645gH5gL4; In the cell assay (2.4) it was labelled with Alexa Fluor 488; also called A26 Fab-Fv; Fab-Fv
As to B3, in assay [3], the Kd turned out to be 2.66 nM, the koff turned out to be 0.000189 s⁻¹ and the kon came out at 71000 M⁻¹ s⁻¹. In assay [4], the dissociation constant (Kd) stood at 4.16 nM, the koff turned out to be 0.000368 s⁻¹ and the kon is 88600 M⁻¹ s⁻¹. Besides, in assay [5], the Kd amounted to 2.93 nM, the koff turned out to be 0.000163 s⁻¹ and the on-rate constant (kon) is 58400 M⁻¹ s⁻¹.
